According to patent publication US20040009486A1, “Compositions and methods utilizing DNA polymerases” (priority 1999, published 2004):
Where two headings read alike, the source gives them in different places.

What was measured:
[1] = tested on: primer:template; test: Fidelity screen with rhodamine labeled non-complementary ddNTP; format: biochemical; details: R110-labeled incorrect ddNTP
Procedure: Reactions (10 μl) contained 1 unit of enzyme in 1× reaction buffer, 15 nM primer template, 25 nM of unlabeled complementary ddNTP, and 25, 100, 500, or 1000 nM of rhodamine labeled non-complementary ddNTP in four separate reactions. The reactions were incubated in a Perkin-Elmer 9600 for 25 cycles as follows: 96° C. for 10 s, 50° C. for 5 s, and 60° C. for 30 s. The reactions were then quenched with ice-cold 0.2 M EDTA (final concentration) and the products were purified from unincorporated rhodamine labeled ddNTPs and analyzed as described above.
Fidelity was determined as the tendency of a DNA polymerase to incorporate the correct nucleotide in the presence of increasing amounts of a non-complementary nucleotide. These assays employed constant amounts of primer:template, an unlabeled complementary ddNTP and DNA polymerase, and various concentrations of a rhodamine-labeled non-complementary ddNTP, as described in the Experimental Protocol. The amount of misextended primers is plotted against the ratio of rhodamine-labeled incorrect ddNTP/unlabeled correct ddNTP (FIG. 18 panels A and B). We performed similar assays for all possible mispairs (Table IX).
To address these concerns, the insertion fidelity of the JDF-3 P410L/A485T and Taq F667Y mutants was compared. In the first set of fidelity assays, a constant amount of primer:template, an unlabeled complementary ddNTP, and increasing concentrations of R110-labeled non-complementary ddNTP was used (Materials and Methods). […] The amount of misextended primers was determined and plotted against the ratio of R110-labeled incorrect ddNTP/unlabeled correct ddNTP (FIG. 27, panels A and B). Similar assays for all 12 possible mispairs was performed (ddG:dT, ddT:dG, ddT:dC, ddC:dT, ddC:dA, ddA:dC, ddA:dG, ddG:dA, ddT:dT, ddC:dC, ddA:dA, ddG:dG). […] The other mispairs are formed less frequently, and at similar rates for the JDF-3 P410L/A485T and Taq F667Y mutants (data not shown).
Fidelity assays using labeled ddNTPs (10 μl) contained 1 unit DNA polymerase in 1× reaction buffer, 15 nM primer: template, 25 nM of unlabeled complementary ddNTP, and 25, 100, 500, or 1000 nM of rhodamine-labeled non-complementary ddNTP in four separate reactions. The reactions were incubated in a Perkin-Elmer 9600 for 25 cycles as follows: 96° C. for 10 s, 50° C. for 5 s, and 60° C. for 30 s. The reactions were quenched and analyzed as above.

[2] = tested on: rhodamine labeled-ddNTP and primer:template (pBluescript II); test: Steady-state kinetics for rhodamine labeled ddNTPs and primer:template; format: biochemical; details: 60° C.
Procedure: Km and Vmax values for rhodamine labeled-ddNTP incorporation were measured by incubating 50 nM primer: template with limiting amounts of polymerase (0.1 units or 5 nM) and varying concentrations of rhodamine labeled-ddNTP ranging from 0.1 nM to 500 nM. Samples were incubated at 60° C. for 10 minutes. The reactions were then quenched with ice-cold 0.2 M EDTA (final concentration). Unincorporated rhodamine labeled ddNTPs were removed by purifying the extended primer:templates on CENTRI-SEP spin columns. Reactions were then dried, and the pellets dissolved in 3:1 formamide:EDTA/blue dextran and analyzed by 6% denaturing PAGE on an ABI 377 sequencer. All peak area quantitations were performed using 3.1.2 GeneScan software and Km and Vmax values were calculated using Lineweaver-Burk plots.
Km and Vmax values for primer:template were measured with limiting amounts of enzyme (0.1 units or 5 nM) in the presence of 100 nM of R110-ddGTP and varying concentrations of primer:template (pBL31G:pBluescript II) ranging from 0.5 to 100 nM. Samples were incubated for 10 minutes at 60° C. The reactions were then quenched, purified from unincorporated rhodamine labeled-ddNTPs, and analyzed as described above.
Km and Vmax values for rhodamine-ddNTP incorporation were measured as described Patel, P. H. et al. (2001). J. Biol. Chem. 276, 5044-51 by incubating 50 nM primer:template with limiting amounts of DNA polymerase (0.1 units, 5 nM) and varying concentrations of rhodamine labeled-ddNTP (0.1 nM to 500 nM). All single nucleotide incorporations with R6G-ddATP and TAMRA-ddATP employed pBL34A:pBluescript II, while reactions with TAMRA-ddCTP were performed with pBL25C:pBluescript II. The 10× reaction buffer used for JDF-3 DNA polymerase contained 200 mM Tris-HCl (pH 8.8), 100 mM KCl, 100 mM (NH4)2SO4, and 20 mM MgSO4, while the 10× reaction buffer employed with the Taq F667Y mutant consisted of 260 mM Tris-HCl (pH 9.5) and 65 mM MgCl2. Samples were incubated at 60° C. for 10 minutes, and the reactions were quenched with ice-cold 0.2 M EDTA (final concentration). Unincorporated rhodamine-ddNTPs were removed with CENTRI-SEP spin columns according to the manufacturer's manual. Reactions were dried, and the pellets were dissolved in 3:1 formamide:EDTA/blue dextran and analyzed by 6% denaturing PAGE on an ABI 377 sequencer. Peak area quantitations were performed using 3.1.2 GeneScan® software and Km and Vmax values were calculated using Lineweaver-Burk plots.
Km and Vmax values for primer:template were measured with limiting amounts of enzyme (0.1 units, 5 nM) in the presence of 100 nM dye-ddNTP and varying concentrations of primer:template (0.5-100 nM). Single nucleotide incorporations with R110-ddGTP employed pBL31G:pBluescript II, while reactions with ROX-ddCTP were carried out with pBL25C:pBluescript II. Samples were incubated and analyzed as described above.

For “Taq F667Y: ThermoSequenase, Taq F667Y mutant DNA polymerase from Amersham Pharmacia Biotech”, the “ddG:dT mispair formation frequency, higher than JDF-3 P410L/A485T” value [1] was 20 fold, the “ddT:dC mispair formation frequency, higher than JDF-3 P410L/A485T” value [1] was 3 fold and the “Vmax(fmol/min) TAMRA-ddCTP” value ([2]; pBL25C:pBluescript) was 2.3 fmol/min. For the same substance, the Km ([2]; pBL25C:pBluescript, read-out: Km(nM) TAMRA-ddCTP) was 0.3 nM, the “Vmax(fmol/min) Primer:template” value ([2]; pBL31G:pBluescript, 100 nM R110-ddGTP) was 7.4 fmol/min and the Km ([2]; pBL31G:pBluescript, 100 nM R110-ddGTP, read-out: Km(nM) Primer:template) was 8 nM. For the same substance, the “Vmax(fmol/min) R6G-ddATP” value ([2]; pBL34A:pBluescript) was 9 fmol/min, the “Vmax(fmol/min) TAMRA-ddATP” value ([2]; pBL34A:pBluescript) was 1.9 fmol/min and the Km ([2]; pBL34A:pBluescript, read-out: Km(nM) R6G-ddATP) was 0.35 nM. For the same substance, the Km ([2]; pBL34A:pBluescript, read-out: Km(nM) TAMRA-ddATP) was 0.6 nM.
